The text below walks through data of publication PMC11686999.

The test addresses Pyruvate kinase M2 (PKM2) (human (endogenous in HCT116 and RKO)) (UniProt P14618). Put plainly: cross-linking.

Chain of Pyruvate kinase M2 (PKM2), P14618 1-531 (natural protein; other documents disagree on this pair) (P14618 whole entry): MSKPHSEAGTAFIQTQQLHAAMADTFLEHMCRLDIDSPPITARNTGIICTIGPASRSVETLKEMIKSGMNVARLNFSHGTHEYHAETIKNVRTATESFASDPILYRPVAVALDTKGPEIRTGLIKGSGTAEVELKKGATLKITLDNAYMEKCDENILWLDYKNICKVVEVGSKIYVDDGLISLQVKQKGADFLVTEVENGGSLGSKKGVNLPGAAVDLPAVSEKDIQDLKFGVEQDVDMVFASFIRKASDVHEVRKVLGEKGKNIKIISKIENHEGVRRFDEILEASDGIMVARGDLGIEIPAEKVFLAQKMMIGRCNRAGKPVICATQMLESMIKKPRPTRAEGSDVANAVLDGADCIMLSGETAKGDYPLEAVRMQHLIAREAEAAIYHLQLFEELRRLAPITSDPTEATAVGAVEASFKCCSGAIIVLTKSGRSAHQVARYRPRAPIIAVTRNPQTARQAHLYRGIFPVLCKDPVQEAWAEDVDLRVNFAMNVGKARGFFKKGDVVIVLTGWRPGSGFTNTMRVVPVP

Usually stoichiometry N stands for the number of molecules, sites or subunits per partner or assembly. “Pyruvate kinase M2 (PKM2), P14618 1-531 (natural protein; other documents disagree on this pair)” gave a stoichiometry N of 2.
